Biological target: unlabelled HP1α (human, UniProt P45973 1-191)
Sequence (P45973 whole entry): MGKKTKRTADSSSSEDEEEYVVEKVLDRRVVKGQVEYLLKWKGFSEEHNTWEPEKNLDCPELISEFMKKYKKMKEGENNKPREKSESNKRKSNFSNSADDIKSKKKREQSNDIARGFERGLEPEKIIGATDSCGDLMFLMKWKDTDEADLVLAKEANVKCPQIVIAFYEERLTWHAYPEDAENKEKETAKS

Kd: 7.57 µM
Binder: ARTKQTARKSTGGK (trimethyl-lysine at K9) [H3K9me3 1–14 peptide]

— paper PMC4557296 (2015)
